To fix the notation:
B1: PLAGL1 (parent)
chain: TKEKKHQCDHCERCFYTRKDVRRH
B2: ZBED1 (parent)
chain: EQVFSLGDGVSGGFFGIRDSSFL
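Note: lentivirally expressed fusions sorted by FACS into six bins by GFP to DsRed ratio, PSI derived from sequencing read proportions per bin multiplied by bin number.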

The variants in the first data set derive from B1. As to the kind of experiment: protein stability index of a GFP-peptide fusion (GPS, HEK-293T) (PSI 1-6); higher = more stable. Conditions: c terminus: a fixed tail appended.
Consider TKEKKHQCDHCERCFYTRKDVRRR [H24R], for which the protein stability index amounted to 3.37.
On the same count and under the same terms, to TKEKKHQCDHCERCFYTRKDVRRS [H24S] belongs 3.27.
On the same count and under the same terms, to TKEKKHQCDHCERCFYTRKDVRRN [H24N] belongs 2.89; to TKEKKHQCDHCERCFYTRKDVRRV [H24V], 3.11; to TKEKKHQCDHCERCFYTRKDVRRL [H24L], 3.17.
Turning to TKEKKHQCDHCERCFYTRKDVRRC [H24C], the protein stability index is 3.31.
Take TKEKKHQCDHCERCFYTRKDVRRE [H24E]: the protein stability index came to 4.12.
Still for that read-out and setting: to TKEKKHQCDHCERCFYTRKDVRRP [H24P] belongs 3.24; to TKEKKHQCDHCERCFYTRKKVRRH [D20K], 3.29; to TKEKKHQCDHCERCFYTRKQVRRH [D20Q], 3.43.
With TKEKKHQCDHCERCFYTRKFVRRH [D20F], the protein stability index turned out to be 3.14.
On the same count and under the same terms, to TKEKKHQCDHCERCFYTRKGVRRH [D20G] belongs 3.21.
On the same count and under the same terms, for TKEKKHQCDHCERCFYTRKWVRRH [D20W] the value was 3.03.
Consider TKEKKHQCDHCERCFYTRKSVRRH [D20S], for which the protein stability index was 3.22.
On the same count and under the same terms, to TKEKKHQCDHCERCFYTRKVVRRH [D20V] belongs 3.71; to TKEKKHQCDHCERCFYTRKNVRRH [D20N], 3.37.
On to TKEKKHQCDHCERCFYTRKYVRRH [D20Y], for which the protein stability index was 3.28.
In the case of TKEKKHQCDHCERCFYTRKLVRRH [D20L], the protein stability index turned out to be 3.14.
Take TKEKKHQCDHCERCFYTRKPVRRH [D20P]: the protein stability index turned out to be 3.1.
Still for that read-out and setting: to TKEKKHQCDHCERCFYTRKAVRRH [D20A] belongs 3.61; to TKEKKHQCDHCERCFYTRKRVRRH [D20R], 3.84.
Same read-out and setting: to TKEKKHQCDHCERCFYTRKEVRRH [D20E] belongs 3.96; to TKEKKHQCDHCERCFYTRKTVRRH [D20T], 2.96; to TKEKKHQCDHCERCFYTRKIVRRH [D20I], 2.65.
Turning to TKEKKHQCDHCERCFYTRKCVRRH [D20C], the protein stability index amounted to 3.02.
Still for that read-out and setting: for TKEKKHQCDHCERCFYTRKHVRRH [D20H] the value was 3.43; for TKEKKHQCDHCERCFYTRKMVRRH [D20M], 3.44.

The variants in a further data set derive from B2. Described as above. Conditions: c terminus: native.
As for PQVFSLGDGVSGGFFGIRDSSFL [E1P], the protein stability index stood at 2.64.
For HQVFSLGDGVSGGFFGIRDSSFL [E1H], the protein stability index worked out at 2.45.
Still for that read-out and setting: to QQVFSLGDGVSGGFFGIRDSSFL [E1Q] belongs 2.77; to MQVFSLGDGVSGGFFGIRDSSFL [E1M], 1.89.
Take LQVFSLGDGVSGGFFGIRDSSFL [E1L]: the protein stability index is 2.3.
Still for that read-out and setting: to AQVFSLGDGVSGGFFGIRDSSFL [E1A] belongs 2.52; to TQVFSLGDGVSGGFFGIRDSSFL [E1T], 2.35; to WQVFSLGDGVSGGFFGIRDSSFL [E1W], 1.62.
Take SQVFSLGDGVSGGFFGIRDSSFL [E1S]: the protein stability index stood at 2.83.
The same measure, in the same setting: to GQVFSLGDGVSGGFFGIRDSSFL [E1G] belongs 2.45; to NQVFSLGDGVSGGFFGIRDSSFL [E1N], 2.99.
The same measure, in the same setting: to FQVFSLGDGVSGGFFGIRDSSFL [E1F] belongs 2.19; to DQVFSLGDGVSGGFFGIRDSSFL [E1D], 3.69.
In the case of VQVFSLGDGVSGGFFGIRDSSFL [E1V], the protein stability index was determined as 3.14.
Same read-out and setting: for KQVFSLGDGVSGGFFGIRDSSFL [E1K] the value was 2.64.
Still for that read-out and setting: to YQVFSLGDGVSGGFFGIRDSSFL [E1Y] belongs 3.12; to CQVFSLGDGVSGGFFGIRDSSFL [E1C], 1.16; to RQVFSLGDGVSGGFFGIRDSSFL [E1R], 2.06.
Still for that read-out and setting: to EQVHSLGDGVSGGFFGIRDSSFL [F4H] belongs 4.16; to EQVDSLGDGVSGGFFGIRDSSFL [F4D], 4.38; to EQVNSLGDGVSGGFFGIRDSSFL [F4N], 4.11.
Regarding EQVKSLGDGVSGGFFGIRDSSFL [F4K], the protein stability index was found to be 4.06.
Still for that read-out and setting: to EQVGSLGDGVSGGFFGIRDSSFL [F4G] belongs 4.16; to EQVPSLGDGVSGGFFGIRDSSFL [F4P], 4.11.
Still for that read-out and setting: to EQVESLGDGVSGGFFGIRDSSFL [F4E] belongs 4.55; to EQVMSLGDGVSGGFFGIRDSSFL [F4M], 3.63.
In the case of EQVISLGDGVSGGFFGIRDSSFL [F4I], the protein stability index amounted to 3.63.
Consider EQVASLGDGVSGGFFGIRDSSFL [F4A], for which the protein stability index came to 4.22.
The same measure, in the same setting: for EQVCSLGDGVSGGFFGIRDSSFL [F4C] the value was 3.18; for EQVLSLGDGVSGGFFGIRDSSFL [F4L], 3.36.
The same measure, in the same setting: for EQDFSLGDGVSGGFFGIRDSSFL [V3D] the value was 4.19; for EQLFSLGDGVSGGFFGIRDSSFL [V3L], 2.91.
With EQIFSLGDGVSGGFFGIRDSSFL [V3I], the protein stability index worked out at 2.9.
Turning to EQPFSLGDGVSGGFFGIRDSSFL [V3P], the protein stability index turned out to be 4.06.
Still for that read-out and setting: for EQSFSLGDGVSGGFFGIRDSSFL [V3S] the value was 3.63; for EQRFSLGDGVSGGFFGIRDSSFL [V3R], 3.55; for EQYFSLGDGVSGGFFGIRDSSFL [V3Y], 3.01.
On the same count and under the same terms, for EQNFSLGDGVSGGFFGIRDSSFL [V3N] the value was 3.82; for EQAFSLGDGVSGGFFGIRDSSFL [V3A], 4.03; for EQMFSLGDGVSGGFFGIRDSSFL [V3M], 3.15.
On the same count and under the same terms, to EQKFSLGDGVSGGFFGIRDSSFL [V3K] belongs 3.7; to EQWFSLGDGVSGGFFGIRDSSFL [V3W], 2.55; to EQGFSLGDGVSGGFFGIRDSSFL [V3G], 4.03.
As for EQQFSLGDGVSGGFFGIRDSSFL [V3Q], the protein stability index was determined as 4.23.
For EQEFSLGDGVSGGFFGIRDSSFL [V3E], the protein stability index stood at 4.17.
Still for that read-out and setting: to EQHFSLGDGVSGGFFGIRDSSFL [V3H] belongs 3.99; to EQTFSLGDGVSGGFFGIRDSSFL [V3T], 3.6; to EQFFSLGDGVSGGFFGIRDSSFL [V3F], 2.52.
For EQCFSLGDGVSGGFFGIRDSSFL [V3C], the protein stability index worked out at 2.92.
Regarding ELVFSLGDGVSGGFFGIRDSSFL [Q2L], the protein stability index turned out to be 1.8.
Same read-out and setting: to EFVFSLGDGVSGGFFGIRDSSFL [Q2F] belongs 1.72; to EEVFSLGDGVSGGFFGIRDSSFL [Q2E], 3.88; to EVVFSLGDGVSGGFFGIRDSSFL [Q2V], 2.17.
Still for that read-out and setting: to EYVFSLGDGVSGGFFGIRDSSFL [Q2Y] belongs 2.43; to EPVFSLGDGVSGGFFGIRDSSFL [Q2P], 3.46; to ETVFSLGDGVSGGFFGIRDSSFL [Q2T], 3.04.
With EHVFSLGDGVSGGFFGIRDSSFL [Q2H], the protein stability index stood at 3.22.
On to EWVFSLGDGVSGGFFGIRDSSFL [Q2W], for which the protein stability index is 2.03.
In the case of ENVFSLGDGVSGGFFGIRDSSFL [Q2N], the protein stability index is 2.98.
On the same count and under the same terms, to EAVFSLGDGVSGGFFGIRDSSFL [Q2A] belongs 2.44.
The same measure, in the same setting: to ESVFSLGDGVSGGFFGIRDSSFL [Q2S] belongs 3.44; to EKVFSLGDGVSGGFFGIRDSSFL [Q2K], 2.74; to EIVFSLGDGVSGGFFGIRDSSFL [Q2I], 1.84.
Consider EGVFSLGDGVSGGFFGIRDSSFL [Q2G], for which the protein stability index is 3.05.
On the same count and under the same terms, for ECVFSLGDGVSGGFFGIRDSSFL [Q2C] the value was 1.96; for EMVFSLGDGVSGGFFGIRDSSFL [Q2M], 1.65; for EDVFSLGDGVSGGFFGIRDSSFL [Q2D], 3.7.
Regarding ERVFSLGDGVSGGFFGIRDSSFL [Q2R], the protein stability index was 3.
